From article PMC9966725, “Preclinical Evaluation of a Lead Specific Chelator (PSC) Conjugated to Radiopeptides for ^203Pb and ^212Pb-Based Theranostics” (Pharmaceutics, 2023)

Experiments:
[1] = after β decay of ^212Pb; cited from earlier work
Description: Potential ambiguity in these predictions arises due to the nature of the ^212Pb decay series. The decay of ^212Pb to ^212Bi might lead to a decoupling of the progeny ^212Bi from the chelator, adding uncertainty to the biodistribution of radioactivity, especially the α-emitters (i.e., ^212Bi, ^212Po). Using particle and heavy ion transport code system (PHITS) modeling, we have shown that α-particles contribute to more than 90% of dose deposition in 10 µm diameter single cells and 1 cm diameter micro-metastasis, while the dose from β-particles becomes more significant ...

in vivo = assay: in vivo; design: species or system mice; conditions: female, athymic nude, mouse, total radioactivity; for tissue uptake at 1 h: iv, 74 kBq
Protocol: (§1) Biodistribution of [^212Pb]Pb-PSC-PEG-T and progeny ^212Bi^3+ was determined in two animal models, including female naïve CD-1Elite mice and athymic mice bearing AR42J tumor xenografts. SSTR2-positve AR42J cells were cultured in 10% Minimum Essential Medium (MEM) supplemented with 10% fetal bovine serum (FBS), 100 units mL^−1 penicillin, and 100 units mL^−1 streptomycin 37 °C in a humidified atmosphere (5% CO2). All animal studies were performed in accordance with the Guide for the Care and Use of Laboratory Animals, according to protocols approved by the University of Iowa Animal Care and Use Committee (protocol#1122453 approved on 16 February 2022). Xenograft of AR42J tumor was developed by subcutaneous (s.c.) injection of 1 × 10^6 cells at the left shoulder of female athymic nude mice. [^212Pb]Pb-PSC-PEG-T was radiolabeled and purified as described above, and kept at room temperature away from light for 3 h before injection, to allow progeny ^212Bi to approach equilibrium before injection. Upon assay, 74 kBq [^212Pb]Pb-PSC-PEG-T (peptide mass = 5–10 pmole) were injected via tail vein (n = 2–3). Animals were euthanized at designated time points (1, 5, 24 h for naïve CD-1 mice; 1, 4 h for AR42J-bearing mice). Organs of interest and tumors were collected, rinsed, and weighed. Radioactivity of ^212Pb and ^212Bi in each sample was measured on an automated gamma counter by 238 keV and 583 keV gamma peaks, respectively. ^212Bi was purified from the generator eluate on RE2 resin and collected in pH = 6 sodium acetate as described above. Biodistribution of free ^212Bi in normal organs was determined at 2 h post injection of 74 kBq ^212Bi in naïve female CD-1 Elite mice (n = 3). Radioactivity in samples was decay corrected and data were expressed as percent injected dose per gram of tissue (%ID/g). SPECT imaging of [^203Pb]Pb-PSC-PEG-T and [^212Pb]Pb-PSC-PEG-T in female athymic nude mice bearing AR42J xenograft (n = 2) was conducted on Bioemtech Gamma-Eye Imaging system (Bioemtech, Athens, Greece) with 30–500 keV dynamic range and 1.9 mm spatial resolution. Whole body 2D-SPECT imaging of [^203Pb]Pb-PSC-PEG-T and [^212Pb]Pb-PSC-PEG-T were collected at 3 h and 24 h (n = 2) post injection of 1.8 MBq [^203Pb]Pb-PSC-PEG-T (52 MBq nmole^−1) and 3.7 MBq [^212Pb]Pb-PSC-PEG-T (20 MBq nmole^−1). SPECT images were generated by acquiring ten 30 s projections. Imaging data were reconstructed and normalized to percent of injected dose (%ID) in tumor and kidneys based on region of interest (ROI) analysis on VISUAL-Eyes software (Bioemtech, Athens, Greece). Animals were euthanized after conclusion of the study at 24 h post injection. Tumor xenografts and organs of interest were collected and weighed. Radioactivity of ^203Pb or ^212Pb was determined on automated gamma counter and normalized to %ID/g.

[2] = Radiochemical stability of radiometal complex in saline, radio-iTLC; format: physicochemical; conditions: for radiochemical purity of progeny: progeny of 37 MBq mL^-1 [^212Pb]Pb-PSC-PEG-T, 24 h in saline at room temperature; for radiochemical purity: single species, 7.4 MBq mL^-1, n = 2
Protocol: (§2) Using [^203Pb]Pb-PSC-PEG-T surrogate, radiochemical stability of [^203Pb]Pb-PSC-PEG-T in saline was monitored for 72 h. Similarly, single species of [^212Bi]Bi-PSC-PEG-T in saline were also monitored for 5 h (five half-lives of ^212Bi). [^203Pb]Pb-PSC-PEG-T and [^212Bi]Bi-PSC-PEG-T were radiolabeled and purified on Sep-Pak® C18 SPE columns as previously described. Next, 7.4 MBq mL^−1 of purified [^203Pb]Pb-PSC-PEG-T and [^212Bi]Bi-PSC-PEG-T were stored in saline supplemented with 5% EtOH and 1 mg mL^−1 sodium ascorbate for 72 h and 5 h, respectively, followed by analysis of radiochemical purity by radio-iTLC method. Then, radiochemical stability of [^212Pb]Pb-PSC-PEG-T and progeny [^212Bi]Bi-PSC-PEG-T were determined by radio-iTLC after storage of 37 MBq mL^−1 radiolabeled [^212Pb]Pb-PSC-PEG-T in saline for 24 h, and further confirmed by radio-HPLC analysis. In human serum, radiochemical stability of [^212Pb]Pb-PSC-PEG-T and progeny [^212Bi]Bi-PSC-PEG-T were determined after incubation of 3.7 MBq [^212Pb]Pb-PSC-PEG-T in 1 mL human serum at 37 °C for 24 h. In addition, metabolic stability of Pb-PSC-PEG-T radiopeptide in serum was determined by radio-HPLC after incubating [^203Pb]Pb-PSC-PEG-T surrogate in human serum for 55 h (five half-lives of ^212Pb). Following the incubation, serum protein was precipitated in ice-cold methanol (1:1.5 v/v) for 10 min, followed by centrifugation at 10,000× g for 10 min. The supernatant was collected and analyzed on radio-HPLC.
In radio-iTLC analysis, 0.1 M NaOAc with 1 mM DTPA was used as mobile phase for ^203Pb, ^212Pb, ^212Bi. Citric acid (0.1 M) was used as mobile phase for ^68Ga. Upon radio-iTLC analysis, 2 µL aliquot sample was spotted on the radio-iTLC strips (2 × 10 cm) and developed in the mobile phase. Radioactivity of ^203Pb and ^212Pb was measured on NaI(Tl) gamma spectroscope using 279 keV and 238 keV gamma peaks, respectively. Radioactivity of ^212Bi on radio-iTLC was measured on the Ludlum Model 3030 α-particle counter. Radio-HPLC analysis was conducted on Agilent 1260 (Agilent, Santa Clara, CA, USA). Binary mobile phases were applied to run 5–60% phase B (acetonitrile) over phase A (0.1% TFA in water) over 10 min on ZORBAX RR Eclipse XDB-C18 column (4.6 × 150 mm, 5 µm). Radioactivity of ^203Pb was measured on flow-through 105S-1 single channel radiation detector (Corroll & Ramsey, Fort Collins, CO, USA). To measure ^212Pb and ^212Bi activity on radio-HPLC, eluate was collected every 10 s on a HPLC fraction collector. Radioactivity of ^212Pb and ^212Bi in each collected eluate was measured on Cobra II automated gamma counter using 238 keV and 583 keV gamma peaks immediately after collection.

[3] = system: SSTR2-positive AR42J xenografts; assay: in vivo; design: species or system mice; conditions: female, athymic nude, mouse, iv, 74 kBq, 1 h
Protocol: as §1

[4] = Stability of radiopeptide in saline, radio-HPLC; format: physicochemical; conditions: 24 h storage in saline, C18, fractions counted on gamma counter
Protocol: as §2, with “Following the incubation, serum protein was precipitated in ice-cold methanol (1:1.5 v/v) for 10 min, followed by centrifugation at 10,000× g for 10 min.” left out, “radio-HPLC. […]” for “radio-HPLC.”

[5] = In vivo biodistribution in naïve tumor-free CD-1 Elite mice; conditions: female, mouse, iv, 74 kBq
Protocol: as §1

[6] = total radioactivity, accumulation in kidneys
[7] = total radioactivity, accumulation in pancreas

Structure (SMILES): O=C(O)CN1CCN(CC(=O)O)CCN(CC(=O)O)CCN(CC(=O)O)CC1 [DOTA, 1,4,7,10-tetraazacyclododecane-1,4,7,10-tetraacetic acid]
- ^212Bi^3+ released from chelator [1]: approximately 36%

Structure (SMILES): C[C@@H](O)[C@@H]1NC(=O)[C@H](CCCCN)NC(=O)[C@@H](Cc2c[nH]c3ccccc23)NC(=O)[C@H](Cc2ccc(O)cc2)NC(=O)[C@@H](NC(=O)[C@@H](Cc2ccccc2)NC(=O)CCOCCOCCNC(=O)CN2CCN(CC(=O)O)CCN(CC(N)=O)CCN(CC(=O)O)CC2)CSSC[C@@H](C(=O)N[C@H](CO)[C@@H](C)O)NC1=O [[^203Pb]Pb-PSC-PEG-T, metal not drawn]
- tissue uptake at 24 h (in vivo; activity in lungs): 0.6 %ID/g
- tissue uptake dose at 3 h (in vivo; kidneys uptake (SPECT ROI)): 8.3 %ID
- tissue uptake dose at 24 h (in vivo; kidneys uptake (SPECT ROI)): 0.8 %ID
- tissue uptake dose at 3 h (in vivo; tumor uptake (SPECT ROI)): 1.8 %ID
- tissue uptake dose at 24 h (in vivo; tumor uptake (SPECT ROI)): 1.5 %ID

Structure (SMILES): C[C@@H](O)[C@@H]1NC(=O)[C@H](CCCCN)NC(=O)[C@@H](Cc2c[nH]c3ccccc23)NC(=O)[C@H](Cc2ccc(O)cc2)NC(=O)[C@@H](NC(=O)[C@@H](Cc2ccccc2)NC(=O)CCOCCOCCNC(=O)CN2CCN(CC(=O)O)CCN(CC(N)=O)CCN(CC(=O)O)CC2)CSSC[C@@H](C(=O)N[C@H](CO)[C@@H](C)O)NC1=O [[^203Pb]Pb-PSC-PEG-T] [metal not drawn]
- free ^203Pb ([2]; 72 h storage in saline with 5% EtOH and 1 mg mL^-1 sodium ascorbate, 7.4 MBq mL^-1, 1 and 5 µM precursor, n = 2): less than 1%
- ^203Pb remained in PSC-PEG-T ([2]; 72 h storage in saline with 5% EtOH and 1 mg mL^-1 sodium ascorbate, 7.4 MBq mL^-1, regardless of PSC-PEG-T precursor concentration (1 and 5 µM), n = 2): More than 99%

Structure (SMILES): C[C@@H](O)[C@@H]1NC(=O)[C@H](CCCCN)NC(=O)[C@@H](Cc2c[nH]c3ccccc23)NC(=O)[C@H](Cc2ccc(O)cc2)NC(=O)[C@@H](NC(=O)[C@@H](Cc2ccccc2)NC(=O)CCOCCOCCNC(=O)CN2CCN(CC(=O)O)CCN(CC(N)=O)CCN(CC(=O)O)CC2)CSSC[C@@H](C(=O)N[C@H](CO)[C@@H](C)O)NC1=O [[^212Bi]Bi-PSC-PEG-T, metal not drawn]
- tissue uptake at 1 h (in vivo; accumulation in bones): 2.5 %ID/g
- tissue uptake at 1 h (in vivo; accumulation in kidneys): 38.1 %ID/g

Structure (SMILES): C[C@@H](O)[C@@H]1NC(=O)[C@H](CCCCN)NC(=O)[C@@H](Cc2c[nH]c3ccccc23)NC(=O)[C@H](Cc2ccc(O)cc2)NC(=O)[C@@H](NC(=O)[C@@H](Cc2ccccc2)NC(=O)CCOCCOCCNC(=O)CN2CCN(CC(=O)O)CCN(CC(N)=O)CCN(CC(=O)O)CC2)CSSC[C@@H](C(=O)N[C@H](CO)[C@@H](C)O)NC1=O [[^212Bi]Bi-PSC-PEG-T] [metal not drawn]
- radiochemical purity of progeny ([2]; 1 µM PSC-PEG-T): 91.8%
- radiochemical purity of progeny ([2]; 3 µM PSC-PEG-T): 94.8%
- radiochemical purity of progeny ([2]; 5 µM PSC-PEG-T): 97.1%
- radiochemical purity ([2]; 1 h incubation in saline (5% EtOH, 1 mg mL^-1 sodium ascorbate), 1 µM PSC-PEG-T precursor): 94.1%
- radiochemical purity ([2]; 2 h incubation in saline (5% EtOH, 1 mg mL^-1 sodium ascorbate), 1 µM PSC-PEG-T precursor): 96.1%
- radiochemical purity ([2]; 3 h incubation in saline (5% EtOH, 1 mg mL^-1 sodium ascorbate), 1 µM PSC-PEG-T precursor): 92.4%
- radiochemical purity ([2]; 5 h incubation in saline (5% EtOH, 1 mg mL^-1 sodium ascorbate), 1 µM PSC-PEG-T precursor): 92.3%
- radiochemical purity ([2]; 5 h incubation in saline (5% EtOH, 1 mg mL^-1 sodium ascorbate), 5 µM PSC-PEG-T precursor): > 98%
- accumulation in adrenal glands [3]: 8.1 %ID/g
- accumulation in liver [3]: 2.1 %ID/g
- accumulation in spleen [3]: 1.4 %ID/g
- radiochemical purity (radiometal remained incorporated as radiopeptide) [4]: > 95%
- accumulation in kidneys ([5]; 1 h): 45.9 ± 3.7 %ID/g
- accumulation in pancreas ([5]; 1 h): 7.3 %ID/g
- activity remained in blood ([5]; 1 h): less than 0.2 %ID/g
- accumulation in kidneys ([5]; 5 h): 29.8 %ID/g
- accumulation in pancreas ([5]; 5 h): 3.5 %ID/g
- residual activity in kidneys ([5]; 24 h): 3.1 ± 1.4 %ID/g

Structure (SMILES): C[C@@H](O)[C@@H]1NC(=O)[C@H](CCCCN)NC(=O)[C@@H](Cc2c[nH]c3ccccc23)NC(=O)[C@H](Cc2ccc(O)cc2)NC(=O)[C@@H](NC(=O)[C@@H](Cc2ccccc2)NC(=O)CCOCCOCCNC(=O)CN2CCN(CC(=O)O)CCN(CC(N)=O)CCN(CC(=O)O)CC2)CSSC[C@@H](C(=O)N[C@H](CO)[C@@H](C)O)NC1=O [[^212Pb]Pb-PSC-PEG-T, metal not drawn]
- tissue uptake at 1 h [5, 6]: 47.1 ± 7.9 %ID/g
- tissue uptake at 5 h [5, 6]: 26.6 %ID/g
- tissue uptake at 1 h [5, 7]: 5.2 %ID/g
- tissue uptake at 5 h [5, 7]: 2 %ID/g
- tissue uptake at 1 h ([5]; total radioactivity, activity remained in blood): < 0.2 %ID/g
- tissue uptake at 24 h ([5]; total radioactivity, residual activity in kidneys): 2.7 ± 1.2 %ID/g
